# Assay results reported in the nanobody polyreactivity screen of Harvey et al. (2022).
# Test: yeast display, Sf9 membrane polyspecificity reagent, FACS + sequencing; frameworks hold sequencing errors
# How it was run: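 Polyreactivity labels are assigned by the sorting gate from which each nanobody was recovered. The gates were low and high (top ~1%), set on anti-HA fluorescence for expression and streptavidin fluorescence for reagent binding. Before sorting, galactose-induced (36–48 hours) yeast display cells were stained for 1 hour at 4 °C with 10% biotinylated, detergent-solubilized Sf9 membrane reagent.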
row,Sequence,polyreactivity (PSR sort gate)
1,QVQLVESGGGLVQAGGSLRLSCAASGIISRWYAMGWYRQAPGKERELVAAIRWSGGRTYYADSVKGRFTISRDNAKNTVYLQMNSLKPEDTAVYYCAADVRQRGIYGPGPHYYWGQGTQVTVSS,low polyreactivity
2,QVQLVESGGGLVQAGGSLRLSCAASGIISSVYAMGWSRQAPGKERELVAAISGSGGSTYYADSVKGRFTISRDNAKNTVYLQMNSLKPEDTAVYYCAKGYQYQGNSYGYWGQGTQVTVSS,low polyreactivity
3,QVQLVESGGGLVQAGGSLRLSCAASGIISSVYAMGWYRQAPGKERELVAAISGSGGSTYYADSVKGRFTISRDNAKNTVYLQMNSQKPEDTAVYYCSKGYQYQGNSYGYWGQGTQVTVSS,low polyreactivity
4,QVQLVESGGGLVQAGGSLRLSCAASGIISYPTVMGWYRQAPGKERELVPAITSGGRTKYADSVKGRFTISRDNAKNTVYLQMNSLKPEDTAVYYCAARTVYWQSWSQFWGYNYWGQGTQVTVSS,low polyreactivity
5,QVQLVESGGGLVQAGGSLRLSCAASGIIYGRYAMGWYRQAPGKERELVAAINASGGSTYYADSVKGRFTISRDNAKNTVYLQMNSLKPEDSAVYYCATRSTRSRTSGYYYWGQGTQVTVSS,high polyreactivity
6,QVQLVESGGGLVQAGGSLRLSCAASGIIYITNAMGWYRQAPGKERELVAAISSTVSTNYADSVKGRFTISRDNAKNTVYLQMNSLKPEDTAVYYCAAEWGLTQGESIYDYWGQGTQVTVSS,low polyreactivity
7,QVQLVESGGGLVQAGGSLRLSCAASGIIYSINAMGWYRQAPGKERELVAAISRSGGSTNYADSVKGRFTISRDNAKNTVYLQMNSLKPEDSAVYYCATVHRYSVWSHNYWGQGTQVTVSS,high polyreactivity
8,QVQLVESGGGLVQAGGSLRLSCAASGIIYTYYAMGWYRQAPGKERELVARISSSGGRTYYADSVKGRFTISRDNAKNTVYLQMNSLKPEDTAVYYCAAAIVSYGRNDYWGQGTQVTVSS,high polyreactivity
9,QVQLVESGGGLVQAGGSLRLSCAASGINFAAYVMGWYRQAPGKERELFAAISKSGGRTYYADSVKGRFTISRDNAKNTVYLQMNSLKPEDTAVYYCAASYTYFSFGIGTDVRYGYWGQGTQVTVSS,high polyreactivity
10,QVQLVESGGGLVQAGGSLRLSCAASGINFGYNVMGWYRQAPGKERELVAAISGSGSSTYYADSVKGRFTISRDNAKNTVYLQMNSLKPEDTAVYYCARQRYEYRTTYYYWGQGTQVTVSS,high polyreactivity
11,QVQLVESGGGLVQAGGSLRLSCAASGINFNRYAMGWYRQAPGNERELVAAITSSGGSTHYADSVKGRFTISRDNAKNTVYLQMNSLKPEDTAVYYCAKQFPNNYRYYLHYYYWGQGTQVTVSS,low polyreactivity
12,QVQLVESGGGLVQAGGSLRLSCAASGINFNYYAMGWYRQAPGKERELVAAISSTGSTYYSDSVKGRFTISRDNAKNTVYLQMNSLKPEDTAVYYCAAEWWDTGFANYGYDYWGQGTQVTVSS,high polyreactivity
13,QVQLVESGGGLVQAGGSLRLSCAASGINFSEYAMGWSRQAPGKERELVAVITSGGSTYYADSVKGRFTISRDNAKNTVYLQMNSLKPEDTAVYYCAARTAYASRYVNVPYYYWGQGTQVTVSS,high polyreactivity
14,QVQLVESGGGLVQAGGSLRLSCAASGINFVYYAMGWYRQAPGTEREMVAAISKSSGRTYYADSVKGRFTISRDYAKNTVYLQMNSLKPEDTAVYYCNARYRLSPPPLEYWGQGTQVTVSS,high polyreactivity
15,QVQLVESGGGLVQAGGSLRLSCAASGINLAGYVMGGYRQAPGKERDLVADISSSGDSTYYADSVKGRFTISRDNAKNTVYLQMNSLLPEDTAVYYCAAEEIIPLIYKGYPFDYWGQGSQVTVSS,low polyreactivity
16,QVQLVESGGGLVQAGGSLRLSCAASGIPLVSYARGWYRPAPGKVRELVAAISTSGGRTRYADSVKGRFTISRDHAKNTVYIQMNSLKPEDTAVYYCAAELVEPRYNHLPGDGNYWGQGTQVTGSS,high polyreactivity

row,Sequence,polyreactivity (PSR sort gate)
1,QVQLVESGGGLVQAGGSLRLSCAASGIPRNTMGWYRQAPGKETELVASISTSGGSTYYADSVKGRFTISRDNAKNTVYLQMNSLKPEDTAVYYCAKKGYASRYFIYDYWGQGTQVTVSS,low polyreactivity
2,QVQLVESGGGLVQAGGSLRLSCAASGISFGNYAMGWYRQAPGKERELVATISRSGGSTYYADSVKGRFTISRDNAKNTVYLQMNSLKPEDTAVYYCAAQDARRIVYYRYYYWGQGTQVTVSS,high polyreactivity
3,QVQLVESGGGLVQAGGSLRLSCAASGISFYVNAMGSYRQAPGKERELVVAITQSVDITSYADSVKGRFTISRDNEKNTVYLQMNSLKPEVTAVYYCATRVIQDDNARDYWGQGTQVTVSS,low polyreactivity
4,QVQLVESGGGLVQAGGSLRLSCAASGISYRWYAMGWYRQAPGKERELVAAISSGGSTTYADSVKGRFTISRDNAKNTVYLQMNSLKPEDTAVYYCAARYQWYSADYDYWGQGTQVTVSS,high polyreactivity
5,QVQLVESGGGLVQAGGSLRLSCAASGITFADNARGWYRQAPGKERELVASISNSSGSTYYADSVKGRFTISRDNAKNTVYLQMNSLKPEDTAVYYCATDPYVRRSPSWYDYWGQGTQVTVSS,low polyreactivity
6,QVQLVESGGGLVQAGGSLRLSCAASGITFAKYAMGWYRQAPGKERELVAAISTSGGSTYYADSVKGRFTISRDNAKNTVYLQMNSLKPEDTAVYYCNVDTYIWYYLRYYNYWGQGTQVTVSS,high polyreactivity
7,QVQLVESGGGLVQAGGSLRLSCAASGITFAQYAMGWYRQAPGTERELVAGITRSGGSTHYADSVKGRFTISRDNAKNTVYLQMNSLKPEDTAVYYCNARYPYRGKRKPSDYWGQGTQVTVSS,high polyreactivity
8,QVQLVESGGGLVQAGGSLRLSCAASGITFASYAMGWYRQAPGKERELVAGISGSGGRTYYADSVKGRFTISRDNAKNTVYLQMNSLKPEDTAVYYCAARQWDIRASPPRYYRYDYWGQGTQVTVSS,high polyreactivity
9,QVQLVESGGGLVQAGGSLRLSCAASGITFAWNAMGWYRPAPGKEREFVAAINWSGGSTYYADSVKGRFTISRDNAKNTVYLQMNSLKPEDTAVYYCAAYKRSYYPRTLYDYWGQGTQVTVSS,high polyreactivity
10,QVQLVESGGGLVQAGGSLRLSCAASGITFAYYAKGWYRQAPGKEREFVAAINGGGSTNYADSVKGRFSISRDNAKNTVYLQMNSLKAEDTAVYFCNARRAYRAWYYPYDYWGQGTQVTVSS,high polyreactivity
11,QVQLVESGGGLVQAGGSLRLSCAASGITFAYYAMGWYRQAPGKERELVAAITGDGGSTYYADSVKGRFTISRDNAKNTVYLQMNSLKPEDTAVYYCNAELSDYRYDWWDYDYWGQGTQVTVSS,high polyreactivity
12,QVQLVESGGGLVQAGGSLRLSCAASGITFAYYVMGWYRQAPGKERELVAAINWSGGSTYYADSVKGRFTISRDNAKNTVYLQMNSLKPEDTAVYYCAADWSTWYGEKFYWGQGTQVTVSS,high polyreactivity
13,QVQLVESGGGLVQAGGSLRLSCAASGITFAYYVMGWYRQAPGKERELVAAISRSGSTYYADSVKGRFTISRDNAKNTVYLQMNSLKPEDTAVYYCAVLYIRWYTYEYWGQGTQVTVSS,high polyreactivity
14,QVQLVESGGGLVQAGGSLRLSCAASGITFDANAMGWYRQAPGKERELVARISSGGSTNYADSVKGRFTISRDNAKNTVYLQMNSLKPEDTAVYYCNTDLTGLDAEYDYWGQGTQVTVSS,low polyreactivity
15,QVQLVESGGGLVQAGGSLRLSCAASGITFDGYAMGWYRQAPGKERELVAAITYSGGRTYYADSVKGRFTISRDNAKNTVYLQMNSLKPEDTAVYYCAVVSRRLYDYDYWGQGTQVTVSS,high polyreactivity
